The target of series [1] is RPA heterotrimer (RPA70/RPA32/RPA14), full length (UniProt P27694;P15927;P35244 1-616;1-270;1-121). In words: EMSA. Background: Mobility shift assays separate free from complexed probe on a gel.
For series [2], the target named is RPA70 DBD-F (N-terminal domain) fused to MBP (UniProt P27694 1-120). Kind of series: EMSA.
RPA70 DBD-F (N-terminal domain) fused to MBP, sequence (P27694 1-120): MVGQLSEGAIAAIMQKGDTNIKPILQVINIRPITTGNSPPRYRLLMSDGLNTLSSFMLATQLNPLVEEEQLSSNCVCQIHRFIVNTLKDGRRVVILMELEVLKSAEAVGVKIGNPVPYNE

RPA heterotrimer (RPA70/RPA32/RPA14), full length, sequence (P27694 whole entry, chain 1 of 3, the tested form may be a part): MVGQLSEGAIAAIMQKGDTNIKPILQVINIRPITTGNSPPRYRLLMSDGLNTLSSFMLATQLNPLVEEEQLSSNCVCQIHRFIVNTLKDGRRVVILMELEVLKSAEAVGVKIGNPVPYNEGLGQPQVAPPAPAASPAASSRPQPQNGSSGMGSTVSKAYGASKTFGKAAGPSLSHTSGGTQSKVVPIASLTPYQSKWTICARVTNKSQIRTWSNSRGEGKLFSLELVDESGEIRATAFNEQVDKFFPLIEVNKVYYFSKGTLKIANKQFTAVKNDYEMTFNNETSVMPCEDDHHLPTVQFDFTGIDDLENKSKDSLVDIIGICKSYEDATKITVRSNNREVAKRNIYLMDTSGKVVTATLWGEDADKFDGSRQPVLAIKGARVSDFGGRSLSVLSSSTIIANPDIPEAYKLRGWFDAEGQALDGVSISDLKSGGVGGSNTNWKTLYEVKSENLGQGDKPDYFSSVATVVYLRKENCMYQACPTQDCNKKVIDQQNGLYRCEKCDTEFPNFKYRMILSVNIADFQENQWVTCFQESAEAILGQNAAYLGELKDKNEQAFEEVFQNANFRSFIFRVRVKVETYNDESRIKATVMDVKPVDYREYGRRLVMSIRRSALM
RPA heterotrimer (RPA70/RPA32/RPA14), full length, sequence (P15927 whole entry, chain 2 of 3, the tested form may be a part): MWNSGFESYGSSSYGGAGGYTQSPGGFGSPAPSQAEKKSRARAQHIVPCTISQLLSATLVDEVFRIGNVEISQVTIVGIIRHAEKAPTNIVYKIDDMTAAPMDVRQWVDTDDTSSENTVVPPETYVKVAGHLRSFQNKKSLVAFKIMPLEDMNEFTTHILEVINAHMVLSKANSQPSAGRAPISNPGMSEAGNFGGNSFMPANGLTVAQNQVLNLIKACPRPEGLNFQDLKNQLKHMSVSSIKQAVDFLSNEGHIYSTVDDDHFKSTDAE
RPA heterotrimer (RPA70/RPA32/RPA14), full length, sequence (P35244 whole entry, chain 3 of 3, the tested form may be a part): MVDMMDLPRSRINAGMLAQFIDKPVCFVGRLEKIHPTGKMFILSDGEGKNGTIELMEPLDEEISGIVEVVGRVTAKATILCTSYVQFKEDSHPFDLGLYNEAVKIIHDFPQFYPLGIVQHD

On to TTTTTTTTTTTTTTTTTTTTTTTTTTTTTT (ssDNA) [polyT 30mer], for which the binding result in series [1] and in series [2] was “binds” each time.

(Values after paper PMC4201622.)
